Measured values from patent US20200405868A1 (ADEPTHERA, published 2020).
Where no end group is shown, it is not given here. The star is where a group is joined. Palmitoyl = CCCCCCCCCCCCCCCC(=O)*

T1: PTH receptor 1 (PTHR1) (UniProt Q03431 27-593, limits assumed)
T1 sequence (looked up): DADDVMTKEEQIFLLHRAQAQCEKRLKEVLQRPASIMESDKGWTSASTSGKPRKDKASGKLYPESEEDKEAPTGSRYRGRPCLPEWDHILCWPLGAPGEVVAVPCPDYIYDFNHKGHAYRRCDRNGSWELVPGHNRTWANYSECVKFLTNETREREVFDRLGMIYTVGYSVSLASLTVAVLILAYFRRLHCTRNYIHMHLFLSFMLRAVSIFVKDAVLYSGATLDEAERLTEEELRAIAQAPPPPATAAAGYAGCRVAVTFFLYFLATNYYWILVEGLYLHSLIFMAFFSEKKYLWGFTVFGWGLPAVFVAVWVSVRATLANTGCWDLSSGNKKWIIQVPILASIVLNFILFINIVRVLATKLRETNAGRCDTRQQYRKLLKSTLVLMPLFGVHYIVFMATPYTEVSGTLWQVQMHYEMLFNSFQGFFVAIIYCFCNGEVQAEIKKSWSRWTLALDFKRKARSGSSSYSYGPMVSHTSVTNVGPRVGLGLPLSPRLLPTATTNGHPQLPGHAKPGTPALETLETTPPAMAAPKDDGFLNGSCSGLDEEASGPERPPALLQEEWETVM


What was measured:
[1] = biological target: melanocortin receptor 1 (MC1R) (UniProt Q01726 1-317, limits assumed); assay: cell-based or functional assay
PTH receptor 1 (PTHR1) = biological target: T1, PTH receptor 1 (PTHR1); assay: cell-based or functional assay

Sequence of melanocortin receptor 1 (MC1R) (Q01726 whole entry): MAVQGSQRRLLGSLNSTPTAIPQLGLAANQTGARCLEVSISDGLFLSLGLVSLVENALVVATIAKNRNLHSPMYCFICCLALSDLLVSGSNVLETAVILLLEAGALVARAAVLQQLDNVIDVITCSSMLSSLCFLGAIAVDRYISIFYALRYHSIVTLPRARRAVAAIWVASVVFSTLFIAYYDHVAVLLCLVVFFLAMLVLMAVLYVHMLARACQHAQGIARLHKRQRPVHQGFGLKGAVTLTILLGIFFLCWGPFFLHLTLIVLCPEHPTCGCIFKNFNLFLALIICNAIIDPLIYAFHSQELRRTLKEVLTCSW

Row | Binder | EC50 (nM), MC1R cAMP agonistic assay [1] [nM] | EC50 (nM), PTHR1 cAMP agonistic assay (PTH receptor 1 (PTHR1)) [nM]
1 | Palmitoyl-HSYSMEHFRWGKPVGKKRRPVKVYP [SEQ ID NO: 226, Pal-HSYSMEHFRWGKPVGKKRRPVKVYP, conjugated gel-forming ACTH1-24 analog] | 0.14 | 
2 | Palmitoyl-HSYSEIQLMHNLGKHLNSMERVEWLRKKLQDVHNF [SEQ ID NO: 232, Pal-HSYSEIQLMHNLGKHLNSMERVEWLRKKLQDVHNF, gel-forming PTH analog] |  | 14.1
